Experimental data reported in IntAct's records for PubMed 16339905.

B1: X-linked retinitis pigmentosa GTPase regulator-interacting protein 1 (Homo sapiens), Q96KN7-1 (parent)
chain: MSHLVDPTSGDLPVRDIDAIPLVLPASKGKNMKTQPPLSRMNREELEDSFFRLREDHMLVKELSWKQQDEIKRLRTTLLRLTAAGRDLRVAEEAAPLSETARRGQKAGWRQRLSMHQRPQMHRLQGHFHCVGPASPRRAQPRVQVGHRQLHTAGAPVPEKPKRGPRDRLSYTAPPSFKEHATNENRGEVASKPSELVSGSNSIISFSSVISMAKPIGLCMPNSAHIMASNTMQVEEPPKSPEKMWPKDENFEQRSSLECAQKAAELRASIKEKVELIRLKKLLHERNASLVMTKAQLTEVQEAYETLLQKNQGILSAAHEALLKQVNELRAELKEESKKAVSLKSQLEDVSILQMTLKEFQERVEDLEKERKLLNDNYDKLLESMLDSSDSSSQPHWSNELIAEQLQQQVSQLQDQLDAELEDKRKVLLELSREKAQNEDLKLEVTNILQKHKQEVELLQNAATISQPPDRQSEPATHPAVLQENTQIEPSEPKNQEEKKLSQVLNELQVSHAETTLELEKTRDMLILQRKINVCYQEELEAMMTKADNDNRDHKEKLERLTRLLDLKNNRIKQLEGILRSHDLPTSEQLKDVAYGTRPLSLCLETLPAHGDEDKVDISLLHQGENLFELHIHQAFLTSAALAQAGDTQPTTFCTYSFYDFETHCTPLSVGPQPLYDFTSQYVMETDSLFLHYLQEASARLDIHQAMASEHSTLAAGWICFDRVLETVEKVHGLATLIGAGGEEFGVLEYWMRLRFPIKPSLQACNKRKKAQVYLSTDVLGGRKAQEEEFRSESWEPQNELWIEITKCCGLRSRWLGTQPSPYAVYRFFTFSDHDTAIIPASNNPYFRDQARFPVLVTSDLDHYLRREALSIHVFDDEDLEPGSYLGRARVPLLPLAKNESIKGDFNLTDPAEKPNGSIQVQLDWKFPYIPPESFLKPEAQTKGKDTKDSSKISSEEEKASFPSQDQMASPEVPIEAGQYRSKRKPPHGGERKEKEHQVVSYSRRKHGKRIGVQGKNRMEYLSLNILNGNTPEQVNYTEWKFSETNSFIGDGFKNQHEEEEMTLSHSALKQKEPLHPVNDKESSEQGSEVSEAQTTDSDDVIVPPMSQKYPKADSEKMCIEIVSLAFYPEAEVMSDENIKQVYVEYKFYDLPLSETETPVSLRKPRAGEEIHFHFSKVIDLDPQEQQGRRRFLFDMLNGQDPDQGHLKFTVVSDPLDEEKKECEEVGYAYLQLWQILESGRDILEQELDIVSPEDLATPIGRLKVSLQAAAVLHAIYKEMTEDLFS
partner: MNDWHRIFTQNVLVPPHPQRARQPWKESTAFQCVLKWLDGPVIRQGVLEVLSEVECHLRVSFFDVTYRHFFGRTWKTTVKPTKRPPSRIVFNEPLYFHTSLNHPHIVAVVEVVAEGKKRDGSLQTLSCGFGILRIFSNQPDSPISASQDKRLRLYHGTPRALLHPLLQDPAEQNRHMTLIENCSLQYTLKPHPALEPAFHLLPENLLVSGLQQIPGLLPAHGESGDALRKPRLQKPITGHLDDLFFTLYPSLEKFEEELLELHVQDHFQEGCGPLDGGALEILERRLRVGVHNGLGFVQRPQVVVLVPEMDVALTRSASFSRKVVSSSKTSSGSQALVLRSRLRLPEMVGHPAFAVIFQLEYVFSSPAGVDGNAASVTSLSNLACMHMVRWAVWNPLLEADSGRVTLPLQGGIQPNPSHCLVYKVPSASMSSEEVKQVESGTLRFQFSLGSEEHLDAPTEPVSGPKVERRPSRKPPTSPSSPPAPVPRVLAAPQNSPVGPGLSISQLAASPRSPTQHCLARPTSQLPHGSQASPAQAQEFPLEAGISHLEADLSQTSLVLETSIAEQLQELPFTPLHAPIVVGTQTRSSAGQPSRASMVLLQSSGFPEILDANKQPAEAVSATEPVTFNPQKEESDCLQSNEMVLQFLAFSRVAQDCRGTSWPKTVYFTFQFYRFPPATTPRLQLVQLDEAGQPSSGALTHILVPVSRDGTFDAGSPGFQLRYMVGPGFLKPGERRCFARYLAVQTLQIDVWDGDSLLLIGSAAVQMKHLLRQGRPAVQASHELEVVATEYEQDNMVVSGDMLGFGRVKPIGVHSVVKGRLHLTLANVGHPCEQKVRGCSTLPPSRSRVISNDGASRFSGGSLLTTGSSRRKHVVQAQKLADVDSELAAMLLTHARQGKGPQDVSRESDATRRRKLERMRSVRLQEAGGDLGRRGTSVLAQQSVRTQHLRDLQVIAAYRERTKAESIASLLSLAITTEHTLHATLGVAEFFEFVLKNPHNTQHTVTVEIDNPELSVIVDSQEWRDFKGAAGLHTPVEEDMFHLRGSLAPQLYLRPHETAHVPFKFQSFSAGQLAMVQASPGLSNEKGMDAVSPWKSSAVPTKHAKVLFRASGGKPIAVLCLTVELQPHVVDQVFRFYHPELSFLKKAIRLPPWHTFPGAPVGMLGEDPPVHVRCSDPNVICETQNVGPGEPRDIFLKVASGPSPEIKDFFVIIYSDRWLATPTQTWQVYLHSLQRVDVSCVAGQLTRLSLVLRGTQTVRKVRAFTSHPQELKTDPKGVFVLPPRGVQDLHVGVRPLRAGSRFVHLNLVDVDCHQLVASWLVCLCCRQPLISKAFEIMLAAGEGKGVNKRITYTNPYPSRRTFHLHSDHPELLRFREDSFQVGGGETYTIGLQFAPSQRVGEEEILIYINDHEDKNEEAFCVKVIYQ
B2: Nephrocystin-4 (Homo sapiens), O75161-1 (parent)
chain: B1 partner
partner: B1 chain

Variants of: B1
Details: with NPHP4, O75161-1

Q: How did the “effect of a mutation on the interaction” value turn out when G746E was run?
A: disrupting interaction

Q: Which “effect of a mutation on the interaction” value does the source give for R852Q here?
A: with no effect

Q: With D876G as the variant, how does the “effect of a mutation on the interaction” value read?
A: disrupting interaction

Variants of: B1
Details: with NPHP4, O75161-1
Remark: another data set of the same source

Q: How did the “effect of a mutation on the interaction” value turn out when D876G was run?
A: decreasing interaction

Variants of: B2
Details: with RPGRIP1, Q96KN7-1

Q: G754R was tested. Which “effect of a mutation on the interaction” value did it give?
A: disrupting interaction
